# In PMC3655063, “A UDP-X Diphosphatase from Streptococcus pneumoniae Hydrolyzes Precursors of Peptidoglycan Biosynthesis” (PLoS ONE, 2013):
# How the values were obtained:
# [1] = target: the molecule itself; assay: SEC; size-exclusion chromatography, data not shown
# [2] = substrate: CC(=O)N[C@H]1[C@@H](OP(=O)(O)OP(=O)(O)OC[C@H]2O[C@@H](n3ccc(=O)[nH]c3=O)[C@H](O)[C@@H]2O)O[C@H](CO)[C@@H](O)[C@@H]1O[C@H](C)C(=O)N[C@@H](C)C(=O)O; assay: orthophosphate release with calf intestinal alkaline phosphatase coupling; Michaelis-Menten fit of initial rates; type: biochemical, Streptococcus pneumoniae; details: 50 mM Tris pH 8.4, 5 mM MgCl2, 100 nM enzyme, 37°C for the relative activity assay
# Excerpt: (§1) orthophosphate release with calf intestinal alkaline phosphatase coupling; Michaelis-Menten fit of initial rates on UDP-X diphosphatase (UDP-Xase), SP_1669
# [3] = substrate: CC(=O)N[C@H]1[C@@H](OP(=O)(O)OP(=O)(O)OC[C@H]2O[C@@H](n3ccc(=O)[nH]c3=O)[C@H](O)[C@@H]2O)O[C@H](CO)[C@@H](O)[C@@H]1O[C@H](C)C(=O)O; assay: as above; type: biochemical, Streptococcus pneumoniae; details: 50 mM Tris pH 8.4, 5 mM MgCl2, 100 nM enzyme, 37°C for the relative activity assay
# Excerpt: as §1
# [4] = substrate: O=c1ccn([C@@H]2O[C@H](CO[P@@](=O)(O)O[P@@](=O)(O)O[C@H]3O[C@H](CO)[C@@H](O)[C@H](O)[C@H]3O)[C@@H](O)[C@H]2O)c(=O)[nH]1; assay: as above; type: biochemical, Streptococcus pneumoniae; details: 50 mM Tris pH 8.4, 5 mM MgCl2, 100 nM enzyme, 37°C for the relative activity assay
# Excerpt: as §1
# [5] = target: the molecule itself; assay: SAXS; small-angle X-ray scattering of the mutants in solution, 4.5 and 6 mg/mL; ab initio envelopes fitted with the wild-type crystal dimer (PDB 4HFQ)
protein,measurement,setting,value
"UDP-X diphosphatase from Streptococcus pneumoniae TIGR4 (SP_1669 gene product), wild type (enzyme, UniProt A0A0H2URA0 1-203, looked up, Nudix hydrolase UDP-X diphosphatase encoded by gene SP_1669 of Streptococcus pneumoniae TIGR4; the gene was amplified from genomic DNA with NdeI and BamHI sites at its start and end; the structure describes residues 1-203 (N-terminal domain 1-59, loop 60-68, C-terminal catalytic domain 69-203); No tag is named; also called UDP-Xase; source: E. coli BL21(DE3), pET-24a, purified (ammonium sulfate, …)) MKTSDFVKYLQRMIAITDTGLTFTKDPFDRERYEDLRSLLSEMLNQASDLDSEEVAEVLKPTSAYATPLMDVRAWIVEDEKICLVRGQGEDSWALPGGFGEVGYSPTENILKEIEEETGFKAKVERLLAVFDTNRFQLQSKQYTKFVFGCKLLDGQFQENQEIADLQFFAIDQLPNLSEKRITKEQIELLWQVYQGHRGQYLD",stoichiometry N,[1],2
same,Km,[2],1.6 ± 0.3 mM
same,Vmax,[2],28.3 µM/min
same,kcat,[2],4.7 ± 0.2 s⁻¹
same,kcat/Km,[2],2900 ± 700 M⁻¹ s⁻¹
same,Km,[3],3.6 ± 0.4 mM
same,Vmax,[3],17.7 µM/min
same,kcat,[3],3 ± 0.1 s⁻¹
same,kcat/Km,[3],800 ± 100 M⁻¹ s⁻¹
same,Km,[4],2.9 ± 1.1 mM
same,Vmax,[4],7 µM/min
same,kcat,[4],1.2 ± 0.1 s⁻¹
same,kcat/Km,[4],400 ± 200 M⁻¹ s⁻¹
"UDP-X diphosphatase E113A mutant (enzyme, UDP-X diphosphatase encoded by gene SP_1669 of Streptococcus pneumoniae TIGR4, with E113A made by site-directed mutagenesis of the wild-type construct; Same construct as m1 apart from the mutation; also called UDP-Xase E113A; source: E. coli, expressed as the wild type, purified (ammonium sulfate, Phenyl FF, Source Q, Sephacryl S200)) MKTSDFVKYLQRMIAITDTGLTFTKDPFDRERYEDLRSLLSEMLNQASDLDSEEVAEVLKPTSAYATPLMDVRAWIVEDEKICLVRGQGEDSWALPGGFGEVGYSPTENILKAIEEETGFKAKVERLLAVFDTNRFQLQSKQYTKFVFGCKLLDGQFQENQEIADLQFFAIDQLPNLSEKRITKEQIELLWQVYQGHRGQYLD",stoichiometry N,[5],2
"UDP-X diphosphatase E162A mutant (enzyme, UDP-X diphosphatase encoded by gene SP_1669 of Streptococcus pneumoniae TIGR4, with E162A made by site-directed mutagenesis of the wild-type construct; Same construct as m1 apart from the mutation; also called UDP-Xase E162A; source: E. coli, expressed as the wild type, purified (ammonium sulfate, Phenyl FF, Source Q, Sephacryl S200)) MKTSDFVKYLQRMIAITDTGLTFTKDPFDRERYEDLRSLLSEMLNQASDLDSEEVAEVLKPTSAYATPLMDVRAWIVEDEKICLVRGQGEDSWALPGGFGEVGYSPTENILKEIEEETGFKAKVERLLAVFDTNRFQLQSKQYTKFVFGCKLLDGQFQENQAIADLQFFAIDQLPNLSEKRITKEQIELLWQVYQGHRGQYLD",binding result,[5],binds
